From patent US5851983A, “Elastase inhibitory polypeptide and process for production thereof by recombinant gene technology” (Teijin Limited, priority 1987, dated 1998)

What was measured:
[1] = Partial hydrolysis with healthy human saliva (Examples 15, 16); format: in vitro ADME; details: 37° C.
Description: Healthy human saliva was filtered through a 0.22 μm filter (Milex GS, Milipore), and in the filtrate was dissolved 1 mg/ml of the SLPI prepared in Reference Example 1. The mixture was then incubated at 37° C. for 30 days. As a control, the SLPI was dissolved in physiological saline (Physisalz; Fuso Yakuhin Kogyo), and the mixture was incubated at 37° C. for 30 days.
With an elapse of time, samples were taken and to each sample were added a Tris-HCl buffer (pH 6.8), SDS, 2-mercaptoethamel and glycerol, to final concentration of 60 mM, 2% by weight, 4% by weight and 10% by weight, respectively, and the mixture was subjected to an SDS-PAGE (U.K. Laemmli, Nature, 227, 680, 1970). The gel after electrophoresis was stained with Coomussie Brilliant Blue.
Next, polypeptides in the polyacrylamide gel thus obtained were electrically transferred to a membrane (Immobilon; Milipore) using a Milli Blot-SDE apparatus. After the transfer, the membrane was stained with 0.1% by weight of Coomassie Blue in 40% by weight methanol/1% by weight acetic acid, and washed with water. Then, after air drying, the bands b, c, d and e were excised, and for each band, the PTH-amino acids were cleaved from the N-terminus with an Applied Biosystems Protein Sequences (Applied Biosystems; 470A) and analysed with a PTH analyser (Applied Biosystems, 120A) to determine an amino acid sequence for 10 amino acids from the N-terminus.
According to the same procedure as described in Example 15, (Asn^55 -Ala^107) SLPI prepared in Example 11 was treated with healthy human saliva at 37° C., and a result is shown in FIG. 13. […] After 12 hours, a new band g (MW about 5,500) appeared.
Next, according to the same procedure as described in Example 15, the band g was electrically transferred to a membrane and N-terminal amino acid sequence was analyzed. […] The 6th amino acid could not be determined. The N-terminal amino acid sequence of the band g corresponds to an amino acid sequence starting from Arg^59 of SLPI.

[2] = target: T1, polymorphonuclear leucocyte elastase from human sputum (Homo sapiens, UniProt P08246); test: Simultaneous treatment with healthy human saliva and elastase (Examples 28, 29); format: in vitro ADME; details: 37° C.
T1 construct: Polymorphonuclear leukocyte elastase from human sputum (EPC Co; Funakoshi Yakuhin); purchased EPC Co. (via Funakoshi Yakuhin); host or cells: human sputum
T1 sequence (P08246 30-267): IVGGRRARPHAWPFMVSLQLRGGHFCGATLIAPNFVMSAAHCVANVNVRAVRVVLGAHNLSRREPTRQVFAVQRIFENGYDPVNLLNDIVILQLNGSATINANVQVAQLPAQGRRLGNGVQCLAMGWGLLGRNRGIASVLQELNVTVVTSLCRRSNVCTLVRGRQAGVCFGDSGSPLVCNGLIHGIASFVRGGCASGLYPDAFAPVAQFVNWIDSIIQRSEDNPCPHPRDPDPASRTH
Description: (1) Healthy human saliva was ultra-filtered through a 0.22 μm filter (Millex GS, Millipore), and to the filtered saliva were added SLPI and polymorphonuclear leucocyte elastase from human sputum (EPC, Funakoshi Yakuhin) to a final concentration of 50 μM respectively. The mixture was incubated at 37° C., samples were taken as time elapsed, and analyzed by SDS-PAGE as described in Example 27.
(2) Next, the band J was transferred to a membrane as described in Example 27, and N-terminal amino acid sequence was analyzed.
(1) According to the same procedure as described in Example 28, to healthy human saliva were dissolved SLPI and polymorphonuclear leucocyte elastase from human sputum to final concentrations of 50 μM and 100 μM respectively, and the mixture was incubated at 37° C. Samples were taken as time elapsed, and analyzed by SDS-PAGE.
(2) Next, N-terminal amino acid sequence of the band M was analyzed as described in Example 27.

[3] = target: T2, Calf pancreatic trypsin (Bos taurus, UniProt P00760); test: Serine protease inhibitory assay, Example 12: trypsin; format: biochemical; details: read-out: concentration of inhibitory protein which exhibits a 50% inhibition; enzyme 10^-7 M; Bz-Arg-pNA 1.0 mM; 37° C.
T2 construct: (2) Calf pancreatic trypsin (Sigma); purchased Sigma; host or cells: calf pancreas
T2 sequence (P00760 24-246): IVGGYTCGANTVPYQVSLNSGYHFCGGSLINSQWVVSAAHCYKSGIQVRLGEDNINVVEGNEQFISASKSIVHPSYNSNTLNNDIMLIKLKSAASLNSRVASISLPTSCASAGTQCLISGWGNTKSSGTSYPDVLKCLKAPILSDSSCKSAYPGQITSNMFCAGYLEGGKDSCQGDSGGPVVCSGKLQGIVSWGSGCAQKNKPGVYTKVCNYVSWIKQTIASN
Description: Assay of serine protease inhibitory activity of active-type (Asn^55 -Ala^107) SLPI fragment polypeptide
The active-type (Asn^55 -Ala^107) SLPI fragment polypeptide obtained by refolding by the procedure shown in Example 11 as measured to determine its inhibitory activity to various serine proteases. The assay result thereof is shown as follows.
Enzyme solution: The following enzymes were dissolved in the above-mentioned buffer solutions at a concentration ten-times higher than the concentration shown in Table 4.
(2) Calf pancreatic trypsin (Sigma)
Substrate solution: For the above-mentioned enzymes (1) to (7), the following substrates (1) to (7), respectively, were dissolved in dimethyl sulfoxyde to a concentration of 10 mM to prepare stock solutions, which were then dissolved in the above-mentioned buffer solution to concentration ten-times higher than final concentrations, to prepare substrate solutions. […]
(§1) To each well of a 96-well ELISA microplate were added 140 μl of the above-mentioned buffer, 20 μl of a test solution, and 20 μl of the enzyme solution, and the mixture was stirred at 37° C. for 30 minutes. Next, 20 μl of the substrate solution was added to the well, the mixture was stirred at 37° C. for one hour to develop same, and the absorbance at 405 nm was measured.
Moreover, an inhibitory constant Ki of the present (Asn^55 -Ala^107) SLPI was calculated on the basis of the above data by a method of Dixon, M. and Webb, E. C. (1979), Enzyme, Longman or a method of Henderson, P. J. F. (1972) Biochem. J., 127, 321-333.

[4] = target: T3, polymorphonuclear leukocyte elastase from human sputum (Homo sapiens, UniProt P08246); test: Serine protease inhibitory assay, Example 12: human elastase; format: biochemical; details: read-out: concentration of inhibitory protein which exhibits a 50% inhibition; enzyme 10^-9 M; MeO-Suc-Ala-Ala-Pro-Val-pNA 0.3 mM; 37° C.
T3 construct: Polymorphonuclear leukocyte elastase from human sputum (EPC Co; Funakoshi Yakuhin); purchased EPC Co. (via Funakoshi Yakuhin); host or cells: human sputum
T3 sequence (P08246 30-267): T1 sequence (P08246 30-267)
Description: as §1

[5] = target: T3, polymorphonuclear leukocyte elastase from human sputum; test: Thermal stability (Example 14); format: physicochemical; details: 50 mM Tris-HCl (pH 7.8), 50° C. for 2 hours
Description: After a solution of an active-type (Asn^55 -Ala^107) SLPI fragment polypeptide in 50 mM Tris-HCl (pH 7.8) was treated at 50° C. for 2 hours, the inhibitory activity on polymorphonuclear leukocyte elastase from human sputum was measured.

IC50 [3]: 0.13 µM
IC50 [4]: 0.001 µM
Substance: (Asn^55 -Ala^107) SLPI: polypeptide having an amino acid sequence starting with the 55th Asn and ending at the 107th Ala of SLPI (NPTRRKPGKCPVTYGQCLMLNPPNFCEMDGQCKRDLKCCMGMCGKSCVSPVKA)
SDS-PAGE band after incubation in physiological saline without saliva ([1]; 96 hours): only the band f having an MW of about 5,800 remained
SDS-PAGE bands after incubation in healthy human saliva ([1]; 96 hours, band f = starting polypeptide, band g MW about 5,500): only the band g remained after 96 hours of incubation
cleavage sites in healthy human saliva ([1]; SDS-PAGE bands, N-terminal sequencing): cleaved at a site between Arg^58 -Arg^59
SDS-PAGE bands on simultaneous treatment with healthy human saliva and elastase ([2]; 50 μM polypeptide, elastase 50 μM (Example 28) or 100 μM (Example 29)): after 48 hours, almost only band M was observed
cleavage site on simultaneous treatment with healthy human saliva and elastase ([2]; N-terminal sequencing of SDS-PAGE band): cleaved at the site between Thr^57 -Arg^58
elastase inhibitory activity after heat treatment (thermal stability) [5]: maintained at the same level
